Results published in patent publication US20230220071A1 (Hoffmann-La Roche, published 2023).

Tests used:
[1] = target: T1, human transferrin receptor (BIAcore, construct not stated) (human, UniProt P02786 89-760); experiment: SPR (BIAcore)
T1 construct: also called huTfR

[2] = target: T2, cynomolgus transferrin receptor (BIAcore, construct not stated) (cynomolgus, UniProt H9EXL1 89-760 (rhesus entry)); experiment: SPR (BIAcore)
T2 construct: also called cyTfR; Cyno TfR

[3] = target: T3, human transferrin receptor on stably transfected CHO-K1 cells (human, UniProt P02786 1-760); experiment: FACS on hTfR-CHO cells
T3 construct: whole, on cells; also called hTfR-CHO; huTfR

[4] = target: T4, cynomolgus transferrin receptor on stably transfected CHO-K1 cells (cynomolgus); experiment: FACS on cyTfR CHO cells
T4 construct: whole, on cells; also called Cyno TfR-CHO; cyTfR

[5] = target: T4, cynomolgus transferrin receptor on …; experiment: FACS, cyno TfR against human TfR
[6] = target: T1, human transferrin receptor (BIAcore, …); experiment: SPR (BIAcore), human TfR against cyno TfR
[7] = target: T5, biotinylated cynomolgus transferrin receptor (cynomolgus); experiment: SPR BIAcore T200, biotinylated TfR captured, 25 C
T5 chain: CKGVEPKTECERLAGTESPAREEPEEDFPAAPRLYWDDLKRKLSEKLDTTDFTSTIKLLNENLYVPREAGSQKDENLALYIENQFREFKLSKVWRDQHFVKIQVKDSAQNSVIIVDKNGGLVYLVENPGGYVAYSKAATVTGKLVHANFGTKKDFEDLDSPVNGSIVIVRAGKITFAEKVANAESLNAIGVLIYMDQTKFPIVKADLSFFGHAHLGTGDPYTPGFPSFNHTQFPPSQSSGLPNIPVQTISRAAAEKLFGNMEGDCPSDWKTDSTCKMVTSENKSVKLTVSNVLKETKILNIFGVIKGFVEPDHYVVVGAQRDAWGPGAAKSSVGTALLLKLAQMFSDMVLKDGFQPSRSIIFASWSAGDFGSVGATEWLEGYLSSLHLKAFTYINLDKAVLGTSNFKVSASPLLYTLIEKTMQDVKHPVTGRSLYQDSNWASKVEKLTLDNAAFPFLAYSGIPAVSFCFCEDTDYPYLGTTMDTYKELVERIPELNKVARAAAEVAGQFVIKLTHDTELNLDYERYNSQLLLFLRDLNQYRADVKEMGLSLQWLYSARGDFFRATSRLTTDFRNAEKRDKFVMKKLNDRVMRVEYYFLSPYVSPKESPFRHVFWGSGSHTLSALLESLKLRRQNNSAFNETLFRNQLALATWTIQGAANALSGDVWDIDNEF
Procedure: For all analysis the Biotin CAPture Kit from GE Healthcare (Instruction 28-9242-34 AB) was used. First the chip was rehydrated by docking it in the BIAcore T200 instrument. After that, the chip was left on standby with running buffer overnight. For surface preparation the Biotin CAPture Reagent was diluted 1:100 in running buffer (1×PBS, supplemented with 0.25 M NaCl). This solution was injected on Flow Cells 1 to 4 for 360 sec with a flow rate of 2 μL/min. Next the sensor surface was conditioned with three one-minute injections of regeneration solution provided in the Biotin CAPture Kit. This has to be done for the docking procedure or for the first time or after storage. A 100 nM human or cynomolgus, respectively, mono-biotinylated transferrin receptor solution should be injected on Flow Cell 2 for 30 sec at a flow rate of 10 μL/min. […] They were injected on the “hu-TfR-flow cell” (e.g. Flow Cell 2 as prepared as outlined above) with an injection time of 180 sec (association) and a flow rate of 10 μL/min. After dissociation phase of 600 sec the surface was regenerated according to the manufacturer's instructions with the regeneration solution provided in the Biotin CAPture Kit and the next cycle was carried out.
The kinetic data was evaluated using the BIAcore T200 evaluation software. Especially the dissociation rate constants of the different human transferrin receptor binders were taken into account after the application of the 1:1 Langmuir binding model.

[8] = target: T5, biotinylated cynomolgus transferrin …; experiment: SPR BIAcore B4000, biotinylated TfR captured, 25 C
Procedure: (§1) A CAP sensor chip (provided in the Biotin CAPture Kit, series S #28-9202-34 GE) was mounted into a BIAcore B4000 system, normalized and addressed in a hydrodynamic manner, according to the manufacturer's instructions. In the first cycle the CAP reagent (as provided in the Kit) was addressed to spot 1, 2, 4 and 5 with a flow rate of 10 μL/min for 300 sec. The human transferrin receptor capture took place in spot 1 (human transferrin receptor-biotinylated) and spot 5 (cynomolgus transferrin receptor-biotinylated) with a flow rate of 10 μL/min and a contact time of 30 sec. The receptors were diluted to a concentration of 50 nM with running buffer (1×PBS #28995084, GE Healthcare, supplemented with 0.25 M NaCl). The antibodies were injected into all flow cells in a concentration series of 100 nM, 50 nM, 25 nM and 0 nM for 180 sec at a flow speed of 30 μL/min. Dissociation time was set to 300 sec. Regeneration of the whole complex from the CAP chip has been performed utilizing the regeneration solution provided in the Biotin CAPture Kit (120 sec with a flow rate of 10 μL/min). To control the active protein concentration a second cycle was performed in spot 5 utilizing biotinylated protein A (#P2165-2MG, Sigma) with a flow rate of 10 μL/min and a contact time of 30 sec. Spot 1 was kept empty in this control cycle. The antibodies and the regeneration were handled like in cycle 1. Relevant kinetic data was calculated using the BIAcore B4000 evaluation software. The dissociation from the human transferrin receptor has been determined applying the 1:1 dissociation fit.

[9] = target: T6, biotinylated human transferrin receptor (human, UniProt P02786 89-760, limits assumed, biotinylated (mono-biotinylated in Example 13)); experiment: SPR BIAcore B4000, biotinylated TfR captured, 25 C
T6 construct: also called human transferrin receptor-biotinylated; mono-biotinylated human transferrin receptor
Procedure: as §1

T6 sequence (P02786 89-760 limits assumed): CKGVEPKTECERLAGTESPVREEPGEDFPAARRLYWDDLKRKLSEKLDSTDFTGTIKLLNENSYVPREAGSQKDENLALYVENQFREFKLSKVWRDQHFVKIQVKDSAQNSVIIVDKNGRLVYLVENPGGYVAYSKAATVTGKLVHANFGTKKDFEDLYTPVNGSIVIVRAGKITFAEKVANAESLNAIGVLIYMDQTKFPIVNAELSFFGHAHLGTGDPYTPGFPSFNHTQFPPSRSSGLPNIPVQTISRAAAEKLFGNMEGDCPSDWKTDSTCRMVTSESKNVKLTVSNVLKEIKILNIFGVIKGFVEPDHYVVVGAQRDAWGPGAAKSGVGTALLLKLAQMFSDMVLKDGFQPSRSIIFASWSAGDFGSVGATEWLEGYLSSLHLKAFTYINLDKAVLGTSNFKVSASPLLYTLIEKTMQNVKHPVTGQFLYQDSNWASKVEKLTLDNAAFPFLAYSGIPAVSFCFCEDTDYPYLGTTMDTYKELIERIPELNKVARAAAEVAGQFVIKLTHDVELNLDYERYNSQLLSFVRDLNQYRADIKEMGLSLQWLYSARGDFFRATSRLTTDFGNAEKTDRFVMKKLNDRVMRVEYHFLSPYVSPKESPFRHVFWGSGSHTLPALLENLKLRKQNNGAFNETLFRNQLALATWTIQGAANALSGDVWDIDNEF

B1: murine anti-transferrin receptor antibody 128.1 (antibody, V domains shown)
VH: QVQLVQSGAEVKKPGASVKVSCKASGYTFTGYTMNWVRQAPGQGLEWMGRINPHNGGTDYAQKFQGRVTMTRDTSISTAYMELSRLRSDDTAVYYCARGYYYYSLDYWGQGTLVTVSS
VL: DIQMTQSPSSLSASVGDRVTITCRASSSIRYIHWYQQKPGKAPKRLIYDTSNLASGVPSRFSGSGSGTEFTLTISSLQPEDFATYYCHQRNSYPWTFGQGTRLEIK
notes: Mouse anti-human TfR antibody
Work on B1 yielded a koff [1] of 0.000606 s⁻¹, a koff [2] of 0.0547 s⁻¹ and an EC50 [3] of 0.096 mg/L. For the same binder, the EC50 [4] was 0.314 mg/L, the “ratio EC50 Cyno/human” value [5] was 3.3 and the “ratio max Cyno/human” value [5] was 0.6. For the same binder, the “ratio t1/2 human/Cyno” value [6] was 90.2, the Kd [7] was 0.136 µM and the koff [7] was 0.0733 s⁻¹. The kon [7] was 541000 M⁻¹ s⁻¹ and the koff [8] was 0.0778 s⁻¹.

B2: VH23-DANG / VK2-SYS (antibody, V domains shown)
VH: QSMQESGPGLVKPSQTLSLTCTVSGFSLSSYAMSWIRQHPGKGLEWIGYIWSGGSTDYASWAKSRVTISKTSTTVSLKLSSVTAADTAVYYCARRYGTSYPDYGDANGFDPWGQGTLVTVSS
VL: DIQMTQSPSSLSASVGDRVTITCRASQSISSYLNWYQQKPGKAPKLLIYRASTLASGVPSRFSGSGSGTDFTLTISSLQPEDFATYYCQQSYSSSNVDNTFGGGTKVEIK
Work on B2 yielded a koff [9] of 0.00522 s⁻¹.

B3: VH23-DANG / VK6-SYS (antibody, V domains shown)
VH: QSMQESGPGLVKPSQTLSLTCTVSGFSLSSYAMSWIRQHPGKGLEWIGYIWSGGSTDYASWAKSRVTISKTSTTVSLKLSSVTAADTAVYYCARRYGTSYPDYGDANGFDPWGQGTLVTVSS
VL: AIQLTQSPSSLSASVGDRVTITCRASQSISSYLSWYQQKPGKAPKLLIYRASTLASGVPSRFSGSGSGTDFTLTISSLQPEDFATYYCQQSYSSSNVDNTFGGGTKVEIK
In the case of B3, the koff [9] is reported as 0.0132 s⁻¹.

B4: VH23-DANG / VK12-HYS (antibody, V domains shown)
VH: QSMQESGPGLVKPSQTLSLTCTVSGFSLSSYAMSWIRQHPGKGLEWIGYIWSGGSTDYASWAKSRVTISKTSTTVSLKLSSVTAADTAVYYCARRYGTSYPDYGDANGFDPWGQGTLVTVSS
VL: DIQMTQSPSSLSASVGDRVTITCRASQSISSYLAWYQQKPGKAPKLLIYRASTLASGVPSRFSGSRSGTDFTLTISSLQPEDFATYYCQQHYSSSNVDNTFGGGTKVEIK
B4 gave a koff [9] of 0.0153 s⁻¹.

B5: VH23-DANG / VK17-TYS (antibody, V domains shown)
VH: QSMQESGPGLVKPSQTLSLTCTVSGFSLSSYAMSWIRQHPGKGLEWIGYIWSGGSTDYASWAKSRVTISKTSTTVSLKLSSVTAADTAVYYCARRYGTSYPDYGDANGFDPWGQGTLVTVSS
VL: AIQLTQSPSSLSASVGDRVTITCRASQSISSYLAWYQQKPGKAPKLLIYRASTLASGVPSRFSGSGSGTDFTLTISSLQPEDFATYYCQQTYSSSNVDNTFGGGTKVEIK
Work on B5 yielded a koff [9] of 0.00229 s⁻¹.

B6: VH23-DANG / VK15-AYS (antibody, V domains shown)
VH: QSMQESGPGLVKPSQTLSLTCTVSGFSLSSYAMSWIRQHPGKGLEWIGYIWSGGSTDYASWAKSRVTISKTSTTVSLKLSSVTAADTAVYYCARRYGTSYPDYGDANGFDPWGQGTLVTVSS
VL: DIVMTQSPDSLAVSLGERATINCKSSQSISSYLIWYQQKPGQPPKLLIYRASTLASGVPDRFSGSGSGTDFTLTISSLQAEDVAVYYCQQAYSSSNVDNTFGGGTKVEIK
In the case of B6, the koff [9] is reported as 0.00697 s⁻¹.

B7: VH9-DANG / VK9-NYA (antibody, V domains shown)
VH: QQLLESGGGLVQPGGSLRLSCAASGFTFSSYAMSWVRQAPGKGLEWVGYIWSGGSTDYADSVKGRFTISRDNSKNTLYLQMNSLRAEDTAVYYCAKRYGTSYPDYGDANGFDPWGQGTLVTVSS
VL: AIQLTQSPSSLSASVGDRVTITCRASQSISSYLAWYQQKPGKAPKLLIYRASTLASGVPSRFSGSGSGTDFTLTISSLQPEDFATYYCQQNYASSNVDNTFGGGTKVEIK
In the case of B7, the koff [9] is reported as 0.00182 s⁻¹.

B8: VH9-DANG / VK2-SYS (antibody, V domains shown)
VH: QQLLESGGGLVQPGGSLRLSCAASGFTFSSYAMSWVRQAPGKGLEWVGYIWSGGSTDYADSVKGRFTISRDNSKNTLYLQMNSLRAEDTAVYYCAKRYGTSYPDYGDANGFDPWGQGTLVTVSS
VL: DIQMTQSPSSLSASVGDRVTITCRASQSISSYLNWYQQKPGKAPKLLIYRASTLASGVPSRFSGSGSGTDFTLTISSLQPEDFATYYCQQSYSSSNVDNTFGGGTKVEIK
B8 showed a koff [9] of 0.0402 s⁻¹.

B9: VH7-DANG / VK6-SYS (antibody, V domains shown)
VH: QQLVETGGGLIQPGGSLRLSCAASGFSLSSYAMSWVRQAPGKGLEWIGYIWSGGSTDYASWAKGRFTISRDNSKNTLYLQMNSLRAEDTAVYYCARRYGTSYPDYGDANGFDPWGQGTLVTVSS
VL: AIQLTQSPSSLSASVGDRVTITCRASQSISSYLSWYQQKPGKAPKLLIYRASTLASGVPSRFSGSGSGTDFTLTISSLQPEDFATYYCQQSYSSSNVDNTFGGGTKVEIK
For B9, the koff [9] was 0.0308 s⁻¹.
